Laboratory results from publication PMC4446433, “Crystal structure of the Bloom's syndrome helicase indicates a role for the HRDC domain in conformational changes” (Nucleic Acids Research, 2015).

Target: T1, BLM^636–1072, including the RecA domains (human, UniProt P54132 636-1072)
T1 construct: also called RecA core; D1/D2 domains
Experiment: BLI; biotinylated HRDC domain immobilised on streptavidin biosensors, RecA domains in solution, in the presence of ADP or ATP; 20-mM HEPES pH 7.5, 200-mM NaCl, 5% glycerol; 60-s windows; Octet RED384; apparent
Details: both partners purified

T1 sequence (P54132 636-1072): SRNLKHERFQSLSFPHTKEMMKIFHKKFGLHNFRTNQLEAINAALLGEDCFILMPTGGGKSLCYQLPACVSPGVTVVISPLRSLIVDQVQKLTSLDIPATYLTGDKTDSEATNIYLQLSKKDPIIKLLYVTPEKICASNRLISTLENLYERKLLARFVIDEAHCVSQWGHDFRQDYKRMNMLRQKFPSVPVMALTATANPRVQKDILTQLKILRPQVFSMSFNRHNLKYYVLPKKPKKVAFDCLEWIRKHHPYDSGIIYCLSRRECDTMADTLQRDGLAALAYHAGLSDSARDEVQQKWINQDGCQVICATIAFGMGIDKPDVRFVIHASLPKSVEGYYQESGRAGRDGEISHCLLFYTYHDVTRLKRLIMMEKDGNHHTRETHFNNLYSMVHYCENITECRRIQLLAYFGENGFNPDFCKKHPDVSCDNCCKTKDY

B1: BLM^1206–1298, encoding the HRDC domain (domain or fragment, human, UniProt P54132 1206-1298, looked up)
chain: AKVSQREEMVKKCLGELTEVCKSLGKVFGVHYFNIFNTVTLKKLAESLSSDPEVLLQIDGVTEDKLEKYGAEVISVLQKYSEWTSPAEDSSPG
modifications: biotin (on the C-terminal biotin acceptor sequence)
notes: The His10 tag is TEV-cleavable, but no cleavage is described; also called isolated HRDC domain; biotinylated HRDC domain; source: E. coli in TB medium with biotin, purified (Ni-IDA, S75 Superdex)
Binder B1 has a Kd of 30 to 100 µM.
